Data as given in PMC7412794.
“Also recorded” adds a separate entry of the source.

How the values were obtained:
[1] = invMM kinetics, 12 g/L Avicel; conditions: glycan lost; control: untreated TrCel7A CD (no linker, no CBM)
[2] = pNP-Lac activity after 1 h at Tm−5 °C; conditions: glycan lost
DSC = conditions: glycan lost
[3] = convMM kinetics, 50 °C, 1 h, reducing ends; conditions: glycan lost; control: WTAo
[4] = invMM kinetics (enzyme excess), 50 °C, 1 h; conditions: glycan lost; control: WTAo

B1: Trichoderma reesei Cel7A (TrCel7A): endoglycosidase H (protein)
parent chain: MYRKLAVISAFLATARAQSACTLQSETHPPLTWQKCSSGGTCTQQTGSVVIDANWRWTHATNSSTNCYDGNTWSSTLCPDNETCAKNCCLDGAAYASTYGVTTSGNSLSIGFVTQSAQKNVGARLYLMASDTTYQEFTLLGNEFSFDVDVSQLPCGLNGALYFVSMDADGGVSKYPTNTAGAKYGTGYCDSQCPRDLKFINGQANVEGWEPSSNNANTGIGGHGSCCSEMDIWEANSISEALTPHPCTTVGQEICEGDGCGGTYSDNRYGGTCDPDGCDWNPYRLGNTSFYGPGSSFTLDTTKKLTVVTQFETSGAINRYYVQNGVTFQQPNAELGSYSGNELNDDYCTAEEAEFGGSSFSDKGGLTQFKKATSGGMVLVMSLWDDYYANMLWLDSTYPTNETSSTPGAVRGSCSTSSGVPAQVESQSPNAKVTFSNIKFGPIGSTGNPSGGNPPGGNRGTTTTRRPATTTGSSPGPTQSHYGQCGGIGYSGPTVCASGTTCQVLNPYYSQCL
enzymatic_activity [1]: increases

B2: Trichoderma reesei Cel7A (TrCel7A): ΔN-glycTr (protein)
parent chain: B1 parent chain
stability_or_folding, other: residual activity ([2]; control: WTTr): no change, 44 ± 1 vs 45 ± 2
stability_or_folding, Tm (DSC; control: WTTr): decreases, 65.2 vs 67.9

B3: Trichoderma reesei Cel7A (TrCel7A): N270QAo (protein)
parent chain: B1 parent chain
stability_or_folding, other: residual activity ([2]; control: WTAo): no change, 60 ± 3 vs 57 ± 1
stability_or_folding, Tm (DSC; control: WTAo): decreases, 66.9 vs 67.9

B4: Trichoderma reesei Cel7A (TrCel7A): ΔN-glycAo (protein)
parent chain: B1 parent chain
stability_or_folding, other: residual activity ([2]; control: WTAo): decreases, 41 ± 2 vs 57 ± 1
stability_or_folding, Tm (DSC; control: WTAo): decreases, 65.0 vs 67.9

B5: Trichoderma reesei Cel7A (TrCel7A): N384QAo (protein)
parent chain: B1 parent chain
stability_or_folding, other: residual activity ([2]; control: WTAo): no change, 57 ± 3 vs 57 ± 1
stability_or_folding, Tm (DSC; control: WTAo): decreases, 66.1 vs 67.9
enzymatic_activity, other: convVmax/E0 (kcat) [3]: decreases, 0.34 ± 0.01 vs 0.48 ± 0.02; also recorded: decreases, 1.01 ± 0.03 vs 1.46 ± 0.14

B6: Trichoderma reesei Cel7A (TrCel7A): N45QAo (protein)
parent chain: B1 parent chain
stability_or_folding, other: residual activity ([2]; control: WTAo): decreases, 38 ± 2 vs 57 ± 1
stability_or_folding, Tm (DSC; control: WTAo): decreases, 67.4 vs 67.9
enzymatic_activity, other: invVmax/S0 [4]: increases, 0.52 ± 0.02 vs 0.45 ± 0.02
enzymatic_activity, other: convVmax/E0 (kcat) [3]: no change, 1.33 ± 0.09 vs 1.46 ± 0.14
